Reference: US20200024330A1

B1: PGT-131 (antibody, V domains shown)
VH: QVQLQESGPGLVKPSETLSLTCTVSGDSINTGHHYWGWVRQVPGKGPEWIAHIHYNTAVLHNPALKSRVTISIFTLKNLITLSLSNVTAADTAVYFCVRSGGDILYYIEWQKPHWFYPWGPGILVTVSS
VL: QSALTQPPSASGSLGQSLTISCSGTGSDIGSWNFVSWYQQFPGRAPNLIIFEVNRRRSGVPDRFSGSKSGNTASLTVSGLRSEDEAEYFCSSLSGRWDIVFGGGTKVTVL
B2: PGT-130 (antibody, V domains shown)
VH: QVQLQESGPGLVKPAETLSLTCSVSGESINTGHYYWGWVRQVPGKGLEWIGHIHYTTAVLHNPSLKSRLTIKIYTLRNQITLRLSNVTAADTAVYHCVRSGGDILYYYEWQKPHWFSPWGPGIHVTVSS
VL: QSALTQPPSASGSLGQSVTISCNGTSSDIGGWNFVSWYQQFPGRAPRLIIFEVNKRPSGVPGRFSGSKSGNSASLTVSGLQSDDEGQYFCSSLFGRWDVVFGGGTKLTVL

Columns and labels:
Experiment in all cases: cell-based or functional assay
[1] = target: Env of the clade AE HIV-1 pseudoviruses of the cross-clade 162-pseudovirus panel (n = 10)
[2] = target: HIV-1 92BR020 envelope glycoprotein (Env) (HIV-1)
[3] = target: HIV-1 92RW020 envelope glycoprotein (Env) (HIV-1)
[4] = target: HIV-1 93UG077 envelope glycoprotein (Env) (HIV-1)
[5] = target: HIV-1 94UG103 envelope glycoprotein (Env) (HIV-1)
[6] = target: HIV-1 APV13 envelope glycoprotein (Env) (HIV-1)
[7] = target: HIV-1 APV17 envelope glycoprotein (Env) (HIV-1)
[8] = target: HIV-1 JR-CSF Env G324A (HIV-1 isolate JR-CSF) (UniProt P20871)
[9] = target: HIV-1 JRCSF envelope glycoprotein (Env) (HIV-1) (UniProt P20871)
[10] = target: HIV-1 JRFL envelope glycoprotein (Env) (HIV-1)
[11] = target: HIV-1 MGRM-A-010 envelope glycoprotein (Env) (HIV-1)
[12] = target: HIV-1 MGRM-C-026 envelope glycoprotein (Env) (HIV-1)
[13] = target: HIV-1 MGRM-C-028 envelope glycoprotein (Env) (HIV-1)
[14] = target: HIV-1 NL43 envelope glycoprotein (Env) (HIV-1)

Binder	Median IC50 against viruses neutralized with an IC50 <50 µg/ml [1] [mg/L]	IC50 neutralization [2] [mg/L]	IC50 neutralization [3] [mg/L]	IC50 neutralization [4] [mg/L]	IC50 neutralization [5] [mg/L]	IC50 neutralization [6] [mg/L]	IC50 neutralization [7] [mg/L]	Fold IC50 increase relative to wild-type [8] [fold]	IC50 neutralization [9] [mg/L]	IC50 neutralization [10] [mg/L]	IC50 neutralization [11] [mg/L]	IC50 neutralization [12] [mg/L]	IC50 neutralization [13] [mg/L]	IC50 neutralization [14] [mg/L]
B1	0.08													
B2	0.17	1.12	0.014	> 10	0.635	0.0345	> 10	> 50	0.0089	0.0346	0.0054	0.0173	> 10	> 10
